Experimental data from PMC8187606, “Biophysical and structural studies reveal marginal stability of a crucial hydrocarbon biosynthetic enzyme acyl ACP reductase” (Scientific Reports, 2021).

Target: the molecule itself
Test: SEC; Superdex 200 Increase 10/300 GL; AAR 1.5 mg/mL; 50 mM Tris, 100 mM NaCl, 1 mM DTT, pH 7.4; without GdnHCl; oligomer of unstated size

B1: Acyl-ACP reductase (AAR) from Synechococcus elongatus PCC 7942, 6-His tagged recombinant (enzyme)
chain: MFGLIGHLTSLEQARDVSRRMGYDEYADQGLEFWSSAPPQIVDEITVTSATGKVIHGRYIESCFLPEMLAARRFKTATRKVLNAMSHAQKHGIDISALGGFTSIIFENFDLASLRQVRDTTLEFERFTTGNTHTAYVICRQVEAAAKTLGIDITQATVAVVGATGDIGSAVCRWLDLKLGVGDLILTARNQERLDNLQAELGRGKILPLEAALPEADFIVWVASMPQGVVIDPATLKQPCVLIDGGYPKNLGSKVQGEGIYVLNGGVVEHCFDIDWQIMSAAEMARPERQMFACFAEAMLLEFEGWHTNFSWGRNQITIEKMEAIGEASVRHGFQPLALAI
notes: Acyl-ACP reductase (AAR), Synechococcus elongatus PCC 7942, codon-optimized aar gene in pQE30; domains described as NTD 1-130, mid-domain 131-264, CTD 265-341; also called Acyl-acyl carrier protein reductase; source: E. coli M15 (pQE30AAR), purified from the soluble fraction (Ni-NTA, gel filtration)
**Q.** Does B1 bind?
**A.** binds
